Target: human ACE2 protein (Angiotensin-Converting Enzyme 2) (human, UniProt Q9BYF1 18-740)
Test: phage-displayed construct probed with ACE2

human ACE2 protein (Angiotensin-Converting Enzyme 2), sequence (Q9BYF1 18-740 limits assumed): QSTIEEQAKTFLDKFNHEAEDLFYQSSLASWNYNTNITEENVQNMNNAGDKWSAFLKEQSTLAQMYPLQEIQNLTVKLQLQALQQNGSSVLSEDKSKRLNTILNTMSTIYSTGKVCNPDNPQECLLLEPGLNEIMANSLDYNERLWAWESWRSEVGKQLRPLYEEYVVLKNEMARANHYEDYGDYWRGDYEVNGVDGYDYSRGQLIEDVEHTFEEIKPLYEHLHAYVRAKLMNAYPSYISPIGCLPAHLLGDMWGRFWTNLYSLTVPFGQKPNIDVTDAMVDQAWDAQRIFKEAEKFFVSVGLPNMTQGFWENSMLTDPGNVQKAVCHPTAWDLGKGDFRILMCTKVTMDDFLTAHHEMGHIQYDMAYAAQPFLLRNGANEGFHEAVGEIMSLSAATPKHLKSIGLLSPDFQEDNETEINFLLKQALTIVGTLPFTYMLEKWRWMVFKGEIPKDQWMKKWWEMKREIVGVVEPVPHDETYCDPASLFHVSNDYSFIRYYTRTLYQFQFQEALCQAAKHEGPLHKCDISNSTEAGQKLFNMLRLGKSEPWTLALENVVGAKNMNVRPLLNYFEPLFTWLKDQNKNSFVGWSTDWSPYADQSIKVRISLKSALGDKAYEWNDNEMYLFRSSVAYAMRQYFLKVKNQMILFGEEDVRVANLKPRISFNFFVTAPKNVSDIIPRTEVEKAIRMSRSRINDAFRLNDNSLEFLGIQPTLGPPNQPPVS

B1: initial SARS CoV RBM construct (residues S432-T486) displayed on fth-1 phage (other)
chain: STGNYNYKYRYLRHGKLRPFERDISNVPFSPDGKPCTPPALNCYWPLNDYGFYTT
B1: no binding.

Source: US20180334480A1 (RAMOT AT TEL AVIV UNIVERSITY, published 2018)
